Test: soluble on expression in E. coli; label from the status in PepcDB or PDB records

Sequence | soluble on expression in E. coli
RIGIVVAAHGNSTASSMVQVVSQLLNVDNLKAVDMPLDMPPKEALRKIVEAVGEVNEENGVLLLVDMGSLSTFSEEIVRQTGIDVRTVDMVTTPIVLEAARKTALIDTQLETLHESLKNFHGYADIRQSETKQ | soluble
SQAHVVDFELQYREAIDCPCRTFGVDRSIGQYLHILVCIEKIAVYQLHQIGSVLIGFVDTAFDYQRISRIDVGITYNIFEMPLGIIDPILQKQIMLDRLRP | not soluble
MGSDKIHHHHHHLRLQLSTWPEVADYLSTRRGVIIPIGSTEQHGPSGLIGTDAITAEVVSWRAGEVLDTLVAPTIAVGMAHHHMAFPGSMTLRPSTLIAVIRDTILALSSHGFTRFLFVNGHGGNIPSIQSAFYEAYEEMRVHHGDGAPDIACQLCSWFSSPAVEALAAEAFGDAEGSHATPSEVSVTWHAYPDQQRTPVLDPPVAPQGRFTDSRDFRRAFPDGRIGSNPALATPELGGRFVEVAVDYIATTYGDFLKG | not soluble
MGSDKIHHHHHHMWKHVKQVDPEIYEVLVNELKRQEYGLELIASENFASLAVIETMGSMLTNKYAEGYPKKRYYGGCEWVDRAEERAIERAKRLFGAKFANVQPHSGSQANMAVYLALAQPGDTIMGMSLSHGGHLTHGAPVNFSGKIFKVVPYGVNLETETIDYDEVRRLALEHKPKIIVAGGSAYARIIDFKRFREIADEVGAYLMVDMAHFAGLVAAGIHPNPLEYAHVVTSTTHKTLRGPRGGLILTNDPEIAKAVDKTIFPGIQGGPLMHVIAAKAVCFKEAMTEEFKEYQKQVVKNAKKMAEEFQKRGYRIVSGGTDTHLFLVDLTPKDITGKAAEKALESCGITVNKNTIPNEKRSPFVASGIRIGTPAVTTRGMKEEEMEEIAEMIDLVLSNVIDENGTVKPEVREEVSKKVRELCERFPLYRDKIEGVEI | not soluble
GPGSMRPSRKRQARRQHPWQQRSVAHKAQRAPSSGHGASGVEHLPRDAVVHVAPRQQHRPVGQAHRRIKRHRVVLRQQKVVPHKRHSRARHAHSPTHRHRVLAQQEVAVNKRHHGAATGRNTALHRHAQPQRRLHRQPVHVERTARRQRHAAN | soluble
MAAYKDLTKEELLELKSGLQAQFEEVKARGLKLDMSRGKPAAAQLNLSMEMMNILNSGTDLVCEDGVDCRNYGGLDGIAEAKQLLADMMEVPKDNVIVFGNSSLNVMYDTVARAMTHGIMGSTPWCKLDKVKFLCPVPGYDRHFAITEHFGIEMINVPMTATGPDMDLVEKLVSEDPAIKGIWCVPKYSNPQGITYSDETVYRFANLKPAAEDFRIFWDNAYCVHHLYEDKQDYLLEILMECKKAGNQDMVYKFSSTSKISFPGSGIAAIAASDANLADIRNMMKVQTIGHDKVNQLRHVRFFKDIHGIVEHMKKHADIMRPKFETVINTLERELGGLEIGSWIAPRGGYFISFDAMEGCAKAIVAKAKEAGLVMTGAGATFPYGKDPKDSNIRIAPSYPTPEELAVAAEIFVLSVKLVSIDKLLKNL | not soluble
MAHHHHHHMHPYLFICKEGNNNNGSTTNLKSGMSLSDRRHTPLGRNLSESTELSQSLSSRSGGSSPIPRPNLDDITRRLLEENEGMLFEINKLTRELTDERAKVSGLHETLAERSAELELMKEKLSDATVVATDDTGKPINYKRECDGLAADNNRLVKEYERVCTELEKRTEEIRREMGDQRDEAEGKTISVQVEQFNREITALVPTVEHIVNSLKRCVVTGGIAEERILENAQKELHTMRRITDTVRRMNAGDETCVKGLLTQIQKGEQLTAPGDVAVVIRWMVVRAFEAGLQSAEGNLRTLVDILNNSKGRYTSENATTGSGEVPASGISVRQMFRLLKM | not soluble
MGSDKIHHHHHHMKFLRSLAFLNLQKKFKNKFNINILDYIKPKPTKICFKDFENKYLTAKQKEVLFDIESNNYSKVIFSGGIASGKTFLASYLLVKKLIENKSFYEQDTNNFIIGNSIGLLMTNTVKQIEKICSLLGIDYEKKKSGQSFCKIAGLKLNIYGGKNRDAFSKIRGGNSAIIYVNEATVIHRETLLEVIKRLRKGKEIIIFDTNPESPAHYFKTDYIENTDVFKTYNFTTYDNPLNSADFIQTQEKLYRRFPAYRARVLYGEWILNESTLFNEMIFNQDYEFKSPIMYIDPAFSVGGDNTAICVLERTFEKFYAYIYQDQKPVSDSLMLASIQVLIENFNVNTVYIEERDSTKGDGILTKTILFLRNKSSHYFKVAPIKPLSNKFKRICALIPLFESRKIEFLKIISKNVISDIYSYKGDGKTKDDALDSLANAYLLLTLNYKEKLFHFGRFKYL | not soluble
MRSSKGGRGRQAAPKTAPTTVCYCDGKRELGSVEVVCSTCLKWFHGRCLKEFHELNSNGVPFMICYTFTCKQCRPTAEDWKAKKADLVQMCVTVLATLSAERLKADGKLSAEHVPEDFTYLSLKDEIVPYMNENWYMLTAIKQKKEWHQNLAPTLLKEKNIFVQHNDDDDLFALAEKNLSLLGPLHEAVKLIGKRPIERENREPRHIELPPIEGPKTRGASKRRHAEAPVTGKKQKLAADYSSTAAPNGVQIDIPFSKDNYRYYLTEVDPNVPEDPAWNQNQSSAYVIPSFHYRELLNPTVNVSSNDRAFQLSINGNSITGFEGYSMARASHGVSKGTWYFEVNFDDQPDDSHIRIGWSQSYASLQACVGYNKFSYGWRSKHGTKFHEAKGKKYHFGGFKQGDVLGCLIHLPVDKKLQIPANLPSEKYLPVSHKGFNLISFKANYFFEVQEESADIAKTLVEMPGSYIEFFHNGKSCGKAYENIYAGAYYPSISIFKSATATMNLGPKFRNLPRGATGIHARADEQQHEQTLSDMLYLVSKEVNLDHPPRVKREDDDDVKDIKKEIKQEI | not soluble
MEMISNNLNWFVGVVEDRMDPLKLGRVRVRVVGLHPPQRAQGDVMGIPTEKLPWMSVIQPITSAAMSGIGGSVTGPVEGTRVYGHFLDKWKTNGIVLGTYGGIVREKPNRLEGFSDPTGQYPRRLGNDTNVLNQGGEVGYDSSSNVIQDSNLDTAINPDDRPLSEIPTDDNPNMSMAEMLRRDEGLRLKVYWDTEGYPTIGIGHLIMKQPVRDMAQINKVLSKQVGREITGNPGSITMEEATTLFERDLADMQRDIKSHSKVGPVWQAVNRSRQMALENMAFQMGVGGVAKFNTMLTAMLAGDWEKAYKAGRDSLWYQQTKGRASRVTMIILTGNLESYGVEVKTPARSLSAMAATVAKSSDPADPPIPNDSRILFKEPVSSYKGEYPYVHTMETESGHIQEFDDTPGQERYRLVHPTGTYEEVSPSGRRTRKTVDNLYDITNADGNFLVAGDKKTNVGGSEIYYNMDNRLHQIDGSNTIFVRGDETKTVEGNGTILVKGNVTIIVEGNADITVKGDATTLVEGNQTNTVNGNLSWKVAGTVDWDVGGDWTEKMASMSSISSGQYTIDGSRIDIGSVDHHHHHH | soluble
MIALKMFYTEETYEQFFDYGLDYVIDASDTICYKIHLMKECLKRDIPLISSMGAANKTDPTRFQIADISKTHTDPIAKVVRTKLRKEGIKKGVQVIFSDESPIVIREDVRKEVGNDEAKIRKAKMPPSSNAFVPSVAGLIMGGHVVMDLLKDIEIKRVKDK | not soluble
MNYRNKAFLKYEEDYFIERIIKALKDYEEIIIISNNPEEYKEFGLKVFKDIYPSQGPLSGIHSALNHIKNDYCLVVACDMPFINKDVVNYLGNIKEDYEILIPKFQERLQPLCAIYKKSCKDIMEKELINNSNKLIKTCFKFSMKVVEEFPFIEKVHKKEIKNFYNINTVDEYEDLIKKKEILEHHHHHH | not soluble
TTCDELISLCDEHHMSVADVVWANETAMRSAVQVRSDLDTVWHVMRRCVQHGCNTNQTVLPGGLDVPRRAPKMYARLASNSDVLKRDGRRSDAVLESSDAAWVDLFALAVSEENAAGGRIVTAPTNGAAGVIPAVLHYYWHFVDHADEDGVVTFLLTAGAIGYLFKRNASISGAEVGCQGEVGTACSMAAAGLCAVMGGTPHQVENAAEIGIEHNLGLTCDPVGGLVQIPCIERNAMAANTAINAVRMAMLGDGTHIVSLDQAIKTMKDTGEDMMAKYKETSKGGLAVN | not soluble
MSAKKERVDVLLVERGLIETREKAKRAIMAGLVYANEMRLDKPGEKIPQDTEITVKGQVMPYVSRGGYKLEKALETFHLDLQDKVMIDIGSSTGGFTDCALQNGAKLSYALDVGYNQLAWKLRQDERVVVMERTNFRYVTPADLERGLPQFASIDVSFISLKLILPVLKTMLMPNGDVAALIKPQFEAGREQVGKKGIVRDRKVHEAVVEMIVDFAIKEGYDVEGLTFSPITGGDGNIEFLIHLKWHGERENGENHSPVSVEQVVTEAHDVLKQKGKGE | not soluble

Reference: the DeepSol protein solubility set
